Drawing on US20220411488A1 (APHARMA, published 2022), this text covers Kd, koff and kon for 2 molecules.

Where a chain is given by its changes, count along the chain named.

This assay concerns the target T1, human ITIH-1 antigen (inter-alpha trypsin inhibitor heavy chain 1) (human).
T1 construct: Produced in HEK293F cells and purified; used as the immunogen; also called SHAP
The experiment in a line: biolayer interferometry, AR2G biosensor, antibody as ligand. The procedure: 5D6 and 9E1 were bound to ITIH1 with high affinity, as shown in the table below, and affinity was determined by AbClon Inc. using an AR2G (Bio-Sensor).

T1 sequence (chain, as listed by the source limits assumed): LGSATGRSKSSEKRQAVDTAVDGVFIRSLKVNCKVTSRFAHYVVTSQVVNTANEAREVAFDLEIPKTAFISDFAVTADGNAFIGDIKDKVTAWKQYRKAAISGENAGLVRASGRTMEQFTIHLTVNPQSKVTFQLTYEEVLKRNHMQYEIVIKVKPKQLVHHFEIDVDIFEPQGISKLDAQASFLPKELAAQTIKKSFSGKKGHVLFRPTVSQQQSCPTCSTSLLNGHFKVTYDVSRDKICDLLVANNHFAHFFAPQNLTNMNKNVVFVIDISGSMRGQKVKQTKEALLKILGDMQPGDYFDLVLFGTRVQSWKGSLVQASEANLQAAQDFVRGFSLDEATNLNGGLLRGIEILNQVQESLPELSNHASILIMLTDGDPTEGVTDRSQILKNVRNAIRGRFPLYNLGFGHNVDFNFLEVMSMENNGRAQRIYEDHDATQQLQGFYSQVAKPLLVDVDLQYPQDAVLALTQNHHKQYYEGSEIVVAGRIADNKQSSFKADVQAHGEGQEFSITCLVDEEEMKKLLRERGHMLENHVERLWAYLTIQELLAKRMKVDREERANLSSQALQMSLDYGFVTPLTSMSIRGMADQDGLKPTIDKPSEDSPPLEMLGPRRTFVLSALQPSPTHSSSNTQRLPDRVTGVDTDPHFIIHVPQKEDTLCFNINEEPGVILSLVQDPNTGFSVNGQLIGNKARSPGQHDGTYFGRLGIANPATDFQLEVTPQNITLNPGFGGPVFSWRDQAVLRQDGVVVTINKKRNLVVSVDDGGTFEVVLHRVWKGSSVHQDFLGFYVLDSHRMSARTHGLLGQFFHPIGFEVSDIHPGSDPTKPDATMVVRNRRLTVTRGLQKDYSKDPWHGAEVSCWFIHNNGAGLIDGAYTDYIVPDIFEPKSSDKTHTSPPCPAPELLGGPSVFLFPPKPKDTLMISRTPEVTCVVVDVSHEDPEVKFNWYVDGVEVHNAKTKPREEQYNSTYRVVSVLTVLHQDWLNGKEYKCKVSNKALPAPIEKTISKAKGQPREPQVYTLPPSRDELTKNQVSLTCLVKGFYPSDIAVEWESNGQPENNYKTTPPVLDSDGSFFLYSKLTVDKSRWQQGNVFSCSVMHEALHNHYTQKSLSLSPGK

B1: monoclonal antibody 9E1 against ITIH1 (antibody, V domains shown)
VH: EVQLQQSGTVLARPGASVKMSCRASGYSFTSYWMHWVKQRPGQGLEWIGSIYPGNTDTNYNQKFKGKAKLTAVTSASTAYMELSSLTNEDSAVYYCTRYGTSEGFAYWGQGTLVTVSA
VL: DIVMTQSPASLAVSLGQRATISCRASQSVSTSSYSYMHWYQQKPGQPPKLLIKYASNLESGVPARFSGSGSGTDFTLNIHPVEEEDSATYYCQHSWEIPPTFGGGTKLEIK
notes: Mouse (BALB/c) hybridoma monoclonal antibody made by AbClon Inc; also called antibody clone 9E1; 9E1 clonal antibody
B1: the Kd stood at 0.133 nM, the koff was 4.45e-05 s⁻¹ and the kon amounted to 334000 M⁻¹ s⁻¹.

B2: monoclonal antibody 5D6 against ITIH1 (antibody, V domains shown)
VH: EVQLQQSGAELVKPGTSVKMSCKASGYTFTSYWMHWVRQRPGQGLEWIGDIYPGTDSTNYNEKFKSKATLTVDTSSSTAYMQLSSLTSEDSAVYYCSRSGDYYDYWGQGTTVTVSS
VL: B1 VL with M4L, S87T, P100W
notes: Mouse (BALB/c) hybridoma monoclonal antibody made by AbClon Inc; also called antibody clone 5D6; 5D6 clonal antibody
For B2, the equilibrium dissociation constant (Kd) was 0.243 nM, the koff was 7.05e-05 s⁻¹ and the kon was determined as 291000 M⁻¹ s⁻¹.
